Measurements: patent US5451369A, “Bacteriocidal surfaces and articles with attached bacteriocin” (The State of Oregon Acting By and Through The State Board …, priority 1993, dated 1995)
Where no end group is shown, it is not given here.

Columns and labels:
[1] = system: gram-positive spoilage and pathogenic bacteria; conditions: various foods (dairy, meats and others); cited from earlier work
[2] = Nisin adsorption to silicon wafers measured by ellipsometry (hydrophobic, silanized surface); format: physicochemical
Excerpt: (§1) This example is an investigation of the binding ability of nisin on hydrophilic surfaces and on such surfaces made strongly hydrophobic by silanization. As representative hydrophilic surfaces, we selected monocrystalline silicon because this material is homogeneous, has substantially no pores or surface cavities, and has optical properties amenable to analysis using a laser beam.
(§2) Optically flat, monocrystalline silicon wafers (Wacker Siltronic Corp., Portland, Oreg.) having 1-0-0 orientation and a resistivity of 0.1 to 0.16 ohm.cm were cut into 1×2 cm wafers using a tungsten knife. The wafer surfaces were polished to a mirror finish.
A second quantity of wafers was made hydrophobic by silanization with dichlorodimethylsilane according to Jonsson et al., J. Colloid Interface Sci. 90:148-163 (1982) .
Hydrophilicity and hydrophobicity were confirmed by contact angle analysis according to McGuire, J. Food Eng. 12:239-247 (1990), incorporated herein by reference. In brief, hydrophobicity was determined by measuring the nondispersive component of the work Wa^p required to remove water from a surface, wherein Wa^p is defined according to equation (1) in said McGuire reference. This value was gained using contact-angle methods, and all food-contact surfaces can be analyzed in this way. […] A low value indicates strong hydrophobicity and a high value indicates strong hydrophilicity. […]

[3] = Nisin adsorption to silicon wafers measured by ellipsometry (hydrophilic surface); format: physicochemical; conditions: hydrophilic silicon wafer; nisin concentration range 0.1 to 1.0 mg/mL
Excerpt: as §1, §2
A first quantity of wafers was made hydrophilic by oxidation wherein the wafers were immersed in a mixture of NH4 OH:H2 O2 :H2 O (1:1:5) at 80° C. for 15 minutes. The wafers were then rinsed using distilled deionized water followed by an immersion in HCl:H2 O2 :H2 O (1:1:5) for 15 minutes at 80° C. […]
Hydrophilicity and hydrophobicity were confirmed by contact angle analysis according to McGuire, J. Food Eng. […] In brief, hydrophobicity was determined by measuring the nondispersive component of the work Wa^p required to remove water from a surface, wherein Wa^p is defined according to equation (1) in said McGuire reference. This value was gained using contact-angle methods, and all food-contact surfaces can be analyzed in this way. […]

[4] = system: Pediococcus pentosaceus strain FBB61-2; experiment: Bioassay of adsorbed nisin: wafers placed face down on seeded MRS agar, inhibition zones; format: cell-based; conditions: hydrophilic wafers with nisin adsorbed from 0.1 to 1.0 mg/mL solutions, 4° C. 24 hours then 37° C.
Description: The activity of adsorbed nisin was evaluated by a bioassay performed as follows: Petri dishes (150×25 mm) containing MRS agar (Difco, Detroit, Mich.) were seeded with 0.1% v/v of a standardized overnight culture of Pediococcus pentosaceus strain FBB61-2 bacteria. Silicon wafers having hydrophilic surfaces were prepared as described above. Such wafers were prepared with and without adsorbed nisin. Wafers were placed face down directly onto the seeded agar surfaces. The Petri dishes were then incubated at 4° C. for 24 hours, then incubated at 37° C.
Referring to FIG. 2, the silicon wafers numbered 1-10 were subjected to adsorption of nisin from 0.1 to 1.0 mg/mL nisin solutions, respectively (in 0.1 mg/mL increments). […] Qualitatively, it can be seen in FIG. 2 that the amount of nisin antimicrobial activity associated with the nisin-coated wafers (as indicated by the diameters of the respective inhibition zones) corresponds to the mass of nisin that actually adsorbed to the respective wafer as shown in FIG. 1; i.e., the smallest inhibition zone corresponded with the smallest adsorbed mass of nisin.

[5] = system: Pediococcus pentosaceus strain FBB61-2; experiment: Desorption of nisin from wafers by rinsing, followed by agar-well diffusion assay; format: cell-based
Description: Nisin was adsorbed to hydrophilic and hydrophobic silicon wafers as described in example 1. We then attempted to desorb nisin from the wafers by placing 50 μL of 0.01M phosphate buffer (pH 6.0) containing 1% polyoxyethylene sorbitan (Tween 80) on each wafer and "agitating" the droplet over the entire wafer surface using a pipette tip. The 50 μL droplet was then transferred to 5.6-mm diameter wells that had been made in seeded agar. As controls, we also attempted to desorb nisin from nisin-coated wafers using the phosphate buffer without Tween 80.
In FIG. 3, the activity of desorbed nisin (from hydrophilic surfaces) is seen as inhibition zones in the agar-well diffusion assay. The amount of recovered nisin roughly corresponded to the relative mass of nisin initially adsorbed to the wafers, similar to the previously described relationships shown in FIGS. 1 and 2. The only exception was the inhibition zone of well 10, wherein the unusually small diameter of the inhibition zone resulted from most of the desorbed nisin being lost during manipulations.
It should be noted that the amount of nisin that became adsorbed onto the wafer surfaces was an amount sufficient for inhibition of susceptible bacteria. Commonly, about 100 Units/g are used in food products to prevent the outgrowth of gram-positive bacterial spores and vegetative cells. […]

[6] = high-potency grade from Aplin and Barrett Ltd.; cited from earlier work
[7] = cited from earlier work

| Substance | control of gram-positive bacteria in foods [1] | reversal of adsorption in more dilute solution ([2]; hydrophilic and hydrophobic wafers, 12-hour post-adsorption exposure to buffer (FIG. 1 circles)) | upper limit (plateau) of adsorbed mass of nisin ([2]; hydrophobic (silanized) silicon wafer, pH 6.0 phosphate buffer, 8 hours contact, consistent with a monolayer) | adsorption plateau on hydrophilic surface [3] | diameter of inhibition zone around nisin-containing wafers [4] | desorption by rinsing with phosphate buffer without Tween 80 ([5]; 0.01M phosphate buffer pH 6.0, no Tween 80) | desorption by phosphate buffer containing Tween 80 ([5]; 0.01M phosphate buffer pH 6.0 with 1% Tween 80) | nominal nisin activity [6] | period of retained bacteriocidal activity ([7]; ambient temperatures (0°-40° C.)) | stability of activity at pH 11 ([7]; pH 11) | potency of purified dry powder on storage ([7]; refrigeration storage) |
| --- | --- | --- | --- | --- | --- | --- | --- | --- | --- | --- | --- |
| Pediocin AcH (KYYGNGVTCGKHSCSVDWGKATTCIINNGAMAWATGGHQGNHKC; ends and bridges not checked; cysteine pairing not given here; UniProt P29430 19-62, looked up) [wide-spectrum bacteriocin produced by lactic-acid bacteria, first identified in 1984] | efficacious in controlling a wide range of spoilage and pathogenic gram-positive bacteria |  |  |  |  |  |  |  |  |  |  |
| Pediocin PA1 (KYYGNGVTCGKHSCSVDWGKATTCIINNGAMAWATGGHQGNHKC; ends and bridges not checked; cysteine pairing not given here; UniProt P29430 19-62, looked up) [wide-spectrum bacteriocin produced by lactic-acid bacteria] | found to control gram-positive bacterial populations |  |  |  |  |  |  |  |  |  |  |
| nisin (ITSISLCTPGCKTGALMGCNMKTATCHCSIHVSK; ends and bridges not checked; also: five thioether crosslinks (ring bridges), places not given here; UniProt P13068 24-57, looked up) | effective in preserving these foods | does not appear to reverse | about 0.36 mg/cm^2 | did not attain a plateau value | generally proportional to the log10 concentration of the nisin solution | resistant to desorption | able to desorb nisin | 45.5×10^6 Units/g | 16-24 months | can be lost rapidly | retains its potency indefinitely |
